Test results as given in patent US20180142226.

How the values were obtained:
W03-E07 = molecular target: T1, W03-E07
T1 chain: QPFPQPQQPFPWQP

[1] = molecular target: T2, 33mer peptide of α-gliadin
T2 chain: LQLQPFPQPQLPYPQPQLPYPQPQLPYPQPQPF

R11-E4E7 = molecular target: T3, R11-E4E7
T3 chain: QPFPQQPEQIIPQQP

W02-E07 = molecular target: T4, W02-E07
T4 chain: LQPFPQPQLPYPQPQ

[2] = molecular target: T5, 26mer peptide of γ-gliadin
T5 chain: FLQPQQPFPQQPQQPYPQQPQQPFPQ

B08-E2E7 = molecular target: T6, B08-E2E7
T6 chain: PQQPIPQQPQPYPQQ

B1: Kuma030 (protein)
chain: AAPTAYTPLDVAQAYQFPEGLDGQGQCIAIIELGGGYDEASLAQYFASLGVPAPQVVSVSVDGASNQPTGDPEGPDGEVTLDIEVAGALAPGAKFAVYFAPDTTAGFLDAITTAIHDPTLKPSVVSISWSGPEDSWTSAAIAAMNRAFLDAAALGVTVLAAAGDQGSTSGEQDGLYHVHFPAASPYVLACGGTRLVASGGRIAQETVWNQGPDGGATGGGVSRIFPLPAWQEHANVPPSANPGASSGRGVPDLAGNADPQTGYEVVIDGEATVTGGTSAVAPLFAALVARINQKLGKAVGYLNPTLYQLPADVFHDITEGNNDIANRAQIYQAGPGWDPCTGLGSPIGVRLLQALLPSASQPQPGSTENLYFQSGALEHHHHHH
W03-E07
  cleavage products by mass spectroscopy: Kuma030 cleaved each peptide after the PQ dipeptide motif
[1]
  appearance of peptide breakdown products over time: In both cases, Kuma030 was the dominant enzyme tested
  cleavage products by mass spectroscopy: Kuma030 cleaved each peptide after the PQ dipeptide motif
DQ2.5-glia-ω1
  Kcat: 27.3 s⁻¹
  Km: 8.4 mM
  Vmax: 2.73e-06 M/s
  kcat/Km: 3270 M⁻¹ s⁻¹
R11-E4E7
  cleavage products by mass spectroscopy: Kuma030 cleaved each peptide after the PQ dipeptide motif
DQ2.5-glia-α1a
  Kcat: 17.4 s⁻¹
  Km: 1.9 mM
  Vmax: 1.74e-06 M/s
  kcat/Km: 9030 M⁻¹ s⁻¹
Peptides containing PQL
  Activity Improvement over Background (Kuma021): 1.2-2x (PQL)
  activity relative to Kuma010: 11-fold more active against peptides containing PQL
  activity relative to Kuma040: Kuma030 is 2-fold more active on PQQ, and 2-fold less active on PQL, than Kuma040
W02-E07
  cleavage products by mass spectroscopy: Kuma030 cleaved each peptide after the PQ dipeptide motif
[2]
  appearance of peptide breakdown products over time: In both cases, Kuma030 was the dominant enzyme tested
B08-E2E7
  cleavage products by mass spectroscopy: Kuma030 cleaved each peptide after the PQ dipeptide motif
Peptides containing PQQ
  Activity Improvement over Background (Kuma021): 1.2-2x (PQQ)
  activity relative to Kuma010: 44-fold more active against peptides containing PQQ
  activity relative to Kuma040: Kuma030 is 2-fold more active on PQQ, and 2-fold less active on PQL, than Kuma040
